Data published in patent publication US20060252692A1, “Inhibitors for use in hemostasis” (ZymoGenetics, Inc., priority 2002, published 2006).

How the values were obtained:
[1] = test system: carotid artery crush injury, vascular occlusion; test: Modified rabbit carotid artery crush injury model; assay type: in vivo, New Zealand White rabbits; conditions: 2-13.5 μg/kg
Procedure: Zsig37 was administered in a modified rabbit carotid artery injury model (Folts et al., Circulation 79:116 (1989), and Golino et al., Thrombosis and Haemostasis 67:302 (1992)) to determine the degree of protection offered in preventing vascular occlusion following a crush injury.
Thirty-four male New Zealand White rabbits, approximately three to six months old (R&R Rabbitry; Stanwood, Wash.) were divided into two groups. Fifteen rabbits received doses of zsig37 ranging from 2-13.5 μg/kg and 19 control rabbits were injected with PBS or equivalent amounts of PBS or zsig39, another adipocyte complement related protein (WO99/10492). The rabbits were anesthetized with ketamine (50 mg/kg, IM) and maintained on halothane inhalation anesthesia for the duration of the study. The hair was shaved from the ears and neck and an angiocatheter was placed in the marginal ear vein for IV support. A midline incision was made in the neck and the carotid artery was accessed. Approximately 5 cm of the common carotid artery proximal to the internal/external bifurcation was exposed via blunt dissection away from the surrounding tissue and any visible side branches were cauterized. A flow probe (Transonic Systems, Inc.; Ithaca N.Y.) was placed distal to the anticipated injury site and a baseline blood flow was established. A 2.5-3.0 cm section of the vessel was then isolated from circulation using atraumatic vascular clamps. Following removal of the blood from the vessel segment, 0.4 ml of zsig37 in 0.9% sodium chloride or […] 0.9% sodium chloride as a control, was injected into the empty vessel segment using a 30 G needle. The vessel was left undisturbed for a five-minute pre-injury treatment. A 1.0 cm crush injury was then inflicted into the center of the vessel segment using a guarded hemostat and left undisturbed for 10 minutes. The vessel clamps were then removed and blood flow reestablished. Blood flow was monitored continuously for 60 minutes after which time the rabbits were euthanized and the vessel excised for histological analysis.

[2] = test system: DA-1 cells; test: Proliferation assay on zsig37-coated plates, DA-1; assay type: cell-based, mouse; conditions: 5,000 cells/well
Procedure: A second assay was performed with TF-1, DA-1, an IL-3 dependent cell line derived from the lymph node of a mouse with a B-cell lymphoma by outgrowth in IL-3 media, pre-B (p53−/− mouse marrow cells, IL-7 dependent, B220+, Thy1 low, Sca-1+), and A7BaF-3 cell lines as described above at 5,000 cells/well. BHK cells were also plated at 500 cells/well.

[3] = test system: atherosclerotic rabbit femoral/iliac artery crush injury; test: Atherosclerotic Folts model, blood flow; assay type: in vivo, New Zealand White rabbits; conditions: 1 mg/kg bolus, n=8, vs 1 mg/kg BSA; p=0.0305
Source text: In the present experiment the standard Folts model was modified to study restenosis in rabbits. In this design, New Zealand White rabbits that normally are not prone to atherosclerosis were fed an atherogenic diet (e.g., 2% cholesterol and 6% coconut oil) for two weeks, underwent balloon denudation of an artery segment and then were continually fed the atherogenic diet. Within three weeks, atherosclerotic plaque had accumulated in the balloon-injured area. At this time, the animal was prepped for surgery and the atherosclerotic vessel was injured via a crush procedure and a Folts model study was performed.
Eleven male New Zealand White rabbits weighing 2.0-2.5 kg were used in this study. Atherosclerosis was developed in the right iliac and femoral arteries following a protocol described by Faxon et al., Am J. Cardiol., 1984, 53:72C-76C; and Faxon et al., Atherosclerosis. 1982, 2:125-133), with the following modifications. […]
Animals were administered 100 U/kg heparin. […] The flow rate was monitored and the vessel tapped to release the thrombus when the flow rate approached 0.7 ml/min. […] Blood flow through the injured vessel was monitored for 60 minutes post bolus infusion. […] Blood pressure was monitored throughout and, prior to termination, blood samples for coagulation factors were collected. […]
Statistical Analysis. All values are expressed as mean±SEM. […]

B1: zsig37: adipocyte complement related protein homolog, polypeptide of SEQ ID NO:2, inhibits collagen-mediated platelet activation and the complement pathway (protein, listed as Homo sapiens)
chain: MGSRGQGLLLAYCLLLAFASGLVLSRVPHVQGEQQEWEGTEELPSPPDHAERAEEQHEKYRPSQDQGLPASRCLRCCDPGTSMYPATAVPQINITILKGEKGDRGDRGLQGKYGKTGSAGARGHTGPKGQKGSMGAPGERCKSHYAAFSVGRKKPMHSNHYYQTVIFDTEFVNLYDHFNMFTGKFYCYVPGLYFFSLNVHTWNQKETYLHIMKNEEEVVILFAQVGDRSIMQSQSLMLELREQDQVWVRLYKGERENAIFSEELDTYITFSGYLVKHATEP
- dose dependency of time patent [1]: No dose dependency was seen
- mean percent time patent ([1]; combined zsig37 treated groups, 60 minutes, standard error ±10.3%, controls 13.5%): 37.2%
- time patent compared to controls (meta analysis of all doses) ([1]; unpaired t-test P=0.019): significant increase in time patent
- growth of DA-1 cells [2]: slightly inhibited growth
- blood flow in final 30 minutes [3]: continuously patent
